Experimental data: article PMC7800377

Legend:
[1] = target: SUN1 I673E (SUN domain of human SUN1, residues 616–812, I673E), GCN4 tag removed (human); test: SEC-MALS; co-expressed and co-purified samples at >1 mg/ml on Superdex 200 Increase 10/300 GL in 20 mM Tris pH 8.0, 150 mM KCl, 2 mM DTT
[2] = target: SUN domain of human SUN1 (amino acid residues 616–812), tags removed (human); test: as above
[3] = target: SUN domain of human SUN1 (amino acid residues 616–812), tags removed (human); test: SEC-MALS; SUN1-KASH4 after removal of bound zinc by treatment with EDTA

stoichiometry N (binder:target ratio (6:6)) [1] | stoichiometry N (binder:target ratio (6:6)) [2] | stoichiometry N (binder:target ratio (6:6)) [3] | stoichiometry N (binder:target ratio (12:12)) [3] | Binder
1 | 1 | 1 | 1 | ASGGPCCSHARIPRTPYLVLSYVNGLPPV (domain or fragment) [KASH domain of human Nesprin-4 (KASH4, amino acid residues 376–404), tags removed]
– | 1 | – | – | GPSPPPTWPHLQLCYLQPPPV (domain or fragment) [KASH domain of human KASH5 (amino acid residues 542–562), tags removed]
